# Measurements from publication PMC7763088, “Impact of Different Lipid Ligands on the Stability and IgE-Binding Capacity of the Lentil Allergen Len c 3” (Biomolecules, 2020).
# Where two headings read alike, the source gives them in different places.
# Key:
# [1] = system: specific IgE in sera of allergic patients; assay: ELISA of sIgE binding to intact, heated or digested rLen c 3; parameters: species or system human
# Experimental: Sera from allergic patients (n = 100) with food and pollen allergy were obtained from the Clinical Diagnostic Center of G.N. Gabrichevsky Research Institute for Epidemiology and Microbiology. The work with human sera was approved by the local ethical committees of this Institute (FS-99-01-009026, Moscow, Russia). The amount of specific IgE (sIgE) to allergen extracts in the patient sera was determined by using RIDA qLine Allergy Panel 1-4 (R-Biopharm, Pfungstadt, Germany). Screening of sera containing sIgE to peach Pru p 3 and Len c 3 was performed by ELISA. For that, plate wells (Corning Incorporated, Corning, NY, USA) were coated with recombinant allergen (0.5 μg/well) in 0.01 M phosphate buffered saline (PBS), pH 7.4, for 1 h, at 37 °C; saturated with 2% bovine serum albumin (SERVA, Heidelberg, Germany) in PBS buffer for 1 h, at 37 °C; and then incubated with the sera of allergic patients (1:4 dilution), for 2 h, at 37 °C. Specific IgE binding was detected by using peroxidase-conjugated anti-human IgE from goat (Sigma) (1:2000 dilution), and 3,3′,5,5′-tetramethylbenzidine (TMB) liquid substrate system for ELISA (Sigma). The enzymatic reaction was stopped after 30 min by 2 N H2SO4 and absorbance values were determined at 450 nm. Moreover, 0.01 M PBS with 0.05% Tween-20 was used as a washing solution on each step. For sIgE binding experiments with the intact or heated (at 100 °C for 30 min) or digested (gastric and subsequent duodenal digestion for 2 h) rLen c 3, patient sera containing sIgE were selected (Table S3). Intact and treated rLen c 3 samples were coated in wells of 96-well plates (0.5 μg/well), and ELISA was performed as described above. Sera samples from non-allergic individuals were used as a negative control.
# pepsin = assay: In vitro gastric digestion (SDS-PAGE); type: in vitro ADME; settings: pepsin, pH 2.0, 2 h
# Experimental: Simulation of gastrointestinal digestion in vitro was performed as described in [15]. Briefly, gastric digestion was performed for 2 h, using 50 ng of pepsin (p) (Sigma) per 1 μg of rLen c 3 in 0.1 M HCl, pH 2.0 (final protein concentration 0.05 mM). For duodenal digestion, pH of the mixture resulting from gastric digestion was adjusted to 8.0 by addition of ammonium bicarbonate. The obtained mixture was incubated for 24 h at 37 °C with 2.5 ng of trypsin (t) (Promega, Madison, WI, USA) and 10 ng of α-chymotrypsin (ch) (Sigma) per 1 μg of the substrate. Degree of proteolysis was monitored by sodium dodecyl sulfate polyacrylamide gel electrophoresis (SDS-PAGE) under reducing conditions and reversed-phase high-performance liquid chromatography (RP-HPLC) on Luna C18 column (5 μm, 250 × 4.6 mm; Phenomenex, Torrance, CA, USA) at a flow rate of 0.5 mL/min, using a gradient of acetonitrile concentration from 5 to 65% for 45 min in 0.1% trifluoroacetic acid (TFA). Gel analysis was performed, using a densitometer. Electroblotting and subsequent N-terminal protein sequencing were performed as described. The protein was preheated at 100 °C for 30 min to study the effect of temperature on allergen stability. rLen c 3 was preloaded with various lipid ligands (LTP to lipid molar ratio 1:4) for 10 min, in order to investigate their effects on allergen resistance to proteolytic digest. […]
# [2] = system: trypsin and α-chymotrypsin; assay: In vitro duodenal digestion after gastric digestion (SDS-PAGE densitometry); type: in vitro ADME
# Experimental: (§1) Simulation of gastrointestinal digestion in vitro was performed as described in [15]. Briefly, gastric digestion was performed for 2 h, using 50 ng of pepsin (p) (Sigma) per 1 μg of rLen c 3 in 0.1 M HCl, pH 2.0 (final protein concentration 0.05 mM). For duodenal digestion, pH of the mixture resulting from gastric digestion was adjusted to 8.0 by addition of ammonium bicarbonate. The obtained mixture was incubated for 24 h at 37 °C with 2.5 ng of trypsin (t) (Promega, Madison, WI, USA) and 10 ng of α-chymotrypsin (ch) (Sigma) per 1 μg of the substrate. Degree of proteolysis was monitored by sodium dodecyl sulfate polyacrylamide gel electrophoresis (SDS-PAGE) under reducing conditions and reversed-phase high-performance liquid chromatography (RP-HPLC) on Luna C18 column (5 μm, 250 × 4.6 mm; Phenomenex, Torrance, CA, USA) at a flow rate of 0.5 mL/min, using a gradient of acetonitrile concentration from 5 to 65% for 45 min in 0.1% trifluoroacetic acid (TFA). Gel analysis was performed, using a densitometer. Electroblotting and subsequent N-terminal protein sequencing were performed as described. The protein was preheated at 100 °C for 30 min to study the effect of temperature on allergen stability. rLen c 3 was preloaded with various lipid ligands (LTP to lipid molar ratio 1:4) for 10 min, in order to investigate their effects on allergen resistance to proteolytic digest. As a control of the influence of lipid ligands on the work of proteolytic enzymes, the same reactions were carried out, using bovine α-casein (Sigma) as a substrate. Some independent experiments were performed in each case.
# [3] = Circular dichroism spectroscopy of rLen c 3 (pH and heat stability, secondary structure); type: physicochemical; settings: for random (secondary structure estimation from Far-UV CD spectra) / turn (secondary structure estimation from Far-UV CD spectra) / α-helix (secondary structure estimation from Far-UV CD spectra) / β-sheet (secondary structure estimation from Far-UV CD spectra): lipid 1 mM where added
# Experimental: (§2) Circular dichroism spectra were recorded at different temperatures, using a J-810 spectropolarimeter (Jasco, Hachioji, Tokyo, Japan) in a 0.1 cm path length quartz cell (Hellma GmbH & Co. KG, Mullheim, Germany) in the 190–250 nm range, and 0.2, using solutions of rLen c 3 in 10 mM phosphate buffer, pH 7.4, or 150 mM sodium chloride, pH 2.5, simulated gastric fluid, at a concentration of 17 µM. Fatty acids or lysolipids were added at a final concentration of 1 mM. Each experiment was performed twice, independently.
# rLen c 3 [4] = target: T1, rLen c 3 (Lens culinaris, UniProt A0AT29); assay: Effect of lipid ligands on gastrointestinal digestion of rLen c 3; type: in vitro ADME, lentil
# T1 construct: with the formation of the large fragment 1–80 and the protein without C-terminal Phe93; His8-TrxL (octahistidine-thioredoxin carrier) (N, cleaved yes); made in house; host or cells: Escherichia coli BL-21 (DE3)
# T1 sequence (A0AT29 26-118): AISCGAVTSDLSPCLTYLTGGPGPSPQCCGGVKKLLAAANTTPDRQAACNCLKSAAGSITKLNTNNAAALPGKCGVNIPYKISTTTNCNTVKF
# Experimental: as §1
# rLen c 3 [5] = target: T1, rLen c 3; assay: TNS displacement lipid binding assay; parameters: species or system lentil; settings: for IC50: 25 °C, 4 μM TNS, 4 μM rLen c 3, read-out: IC50 (TNS displacement)
# Experimental: The ability of rLen c 3 to bind lipids was assayed by monitoring the displacement of the fluorescent probe TNS. Fluorescence intensity was measured at 25 °C with a F-2710 spectrofluorimeter (Hitachi, Tokyo, Japan), using a […] slit width for both excitation (λ = 320 nm) and emission (λ = 437 nm) and the measurement taken for no longer than 1.5–2 s. After equilibrating TNS (4 μM) in 10 mM phosphate buffer, pH 7.4, or 150 mM sodium chloride, pH 2.5, for 2 min with gentle mixing, the 2 mM of competing ligand was titrated into the 2 mL of 4 μM rLen c 3 solution in 1 μL aliquots. The resulting data were fitted by using a sigmoidal curve-fitting in GraphPad Prism from which the concentration able to displace 50% of the TNS (IC50) was calculated. The dependence of the ligand binding on temperature was performed at 20, 40, 60, 90, and 20 °C, after cooling down as previously described. Temperature was checked with a temperature probe in the cuvette. Each experiment was performed in triplicate, independently.
# rLen c 3 [6] = target: T1, rLen c 3; assay: Effect of lipid ligands on secondary structure and thermostability of rLen c 3 (CD spectroscopy); type: physicochemical, lentil; settings: pH 7.4, ligand 1 mM
# Experimental: as §2
# rLen c 3 [7] = target: T1, rLen c 3; assay: ELISA of IgE binding to rLen c 3 preincubated with lipid ligands; parameters: species or system lentil; settings: preincubation with 60 μM ligand, sera with 10 μM ligand; sera from 10 patients; p > 0.1
# Experimental: To study the effects of lipid ligands on IgE binding capacity of allergen, rLen c 3 was covalently bound to Nunc Immobilizer Amino surface plates (Thermo Scientific, Waltham, MA, USA), according to peptide coupling protocol. rLen c 3 solution (100 μg/mL) in 100 mM sodium carbonate, pH 9.6, was added to the wells; after that, the plates were incubated at 25 °C for 2 h. Then 10 mM ethanolamine at the same buffer was used for the plates post-coupling at 25 °C for 1 h. Pre-incubation with PBS or lipid ligand solutions in PBS at concentration of 60 μM was performed overnight at 4 °C. After that, the plates were incubated with selected sera in 1:4 dilution, overnight, at 4 °C, with the absence or presence of 10 μM lipid ligands, due to the reversibility of Len c 3-ligand complexes. Subsequent steps of ELISA were carried out as described above. This experiment was performed twice, independently.
# [8] = 20 °C end (after cooling down from 98.5 °C), pH 7.4
molecule,measurement,setting,value
"rLen c 3: recombinant lentil allergen Len c 3, a lipid transfer protein, overexpressed in Escherichia coli",IgE-binding capacity after heating,"[1]; 100 °C for 30 min, vs intact rLen c 3, patient sera 1:4",significantly (p < 0.001) reduced
same,IgE-binding in rPru p 3 IgE+ sera,"[1]; all rPru p 3 IgE+ sera, compared with rPru p 3",lower values than for rPru p 3
same,IgE-binding capacity after proteolytic digestion,"[1]; gastric and subsequent duodenal digestion for 2 h, vs intact rLen c 3, patient sera 1:4",significantly (p < 0.001) reduced
same,Stability to gastric digestion,pepsin,remarkable stability
same,Intact protein cleaved (densitometric gel analysis),[2]; 30 min of duodenal digestion after 2 h gastric digestion,more than 65%
same,Intact protein cleaved (densitometric gel analysis),[2]; 2 h of duodenal digestion after 2 h gastric digestion,> 85%
same,rLen c 3 degradation,[2]; 24 h of duodenal digestion,100%
same,Effect of protein preheating on degradation,[2]; preheating at 100 °C for 30 min before digestion,slightly increased an efficiency of the allergen degradation
same,random (secondary structure estimation from Far-UV CD spectra),[3]; [8],34.9%
same,turn (secondary structure estimation from Far-UV CD spectra),[3]; [8],21.8%
same,α-helix (secondary structure estimation from Far-UV CD spectra),[3]; [8],5.6%
same,β-sheet (secondary structure estimation from Far-UV CD spectra),[3]; [8],37.7%
same,random (secondary structure estimation from Far-UV CD spectra),"[3]; 20 °C, pH 7.4",30.3%
same,α-helix (secondary structure estimation from Far-UV CD spectra),"[3]; 20 °C, pH 7.4",28.4%
same,β-sheet (secondary structure estimation from Far-UV CD spectra),"[3]; 20 °C, pH 7.4",19.1%
same,Protein folding state on heating,"[3]; 98.5 °C, pH 7.4",almost completely unfolded
same,random (secondary structure estimation from Far-UV CD spectra),"[3]; 98.5 °C, pH 7.4",33.9%
same,turn (secondary structure estimation from Far-UV CD spectra),"[3]; 98.5 °C, pH 7.4",22.0%
same,α-helix (secondary structure estimation from Far-UV CD spectra),"[3]; 98.5 °C, pH 7.4",6.6%
same,β-sheet (secondary structure estimation from Far-UV CD spectra),"[3]; 98.5 °C, pH 7.4",37.4%
same,Recovery of CD spectrum after cooling down,"[3]; cooled down to 20 °C after 98.5 °C, pH 7.4",not recovered
same,CD spectrum at acidic pH mimicking gastric juice,"[3]; pH 2.5 vs pH 7.4, 20 °C",remains almost unchanged
same,Temperature required for allergen denaturation,"[3]; pH 7.4, also shown in ref 17",above 80 °C
"CCCCCCCCCCCCCCCC(=O)OC[C@@H](O)COP(=O)(O)OCC(O)CO (stereo partly drawn) [LPPG, lyso-palmitoyl phosphatidylglycerol]",Degradation of rLen c 3 in the presence of ligand,"rLen c 3 [4]; 24 h of duodenal digestion, LTP to lipid molar ratio 1:4",~ 55%
same,Effect of protein preheating before digestion in the presence of ligand on rate of allergen degradation,"rLen c 3 [4]; after 4 and 24 h, effect more pronounced with LPPC",slightly increased
same,Effect of ligand on rLen c 3 degradation rate (proteolytic digestion),"rLen c 3 [4]; gastric then duodenal digestion, LTP to lipid molar ratio 1:4",more pronounced
same,IC50,"rLen c 3 [5]; 10 mM phosphate buffer, pH 7.4",4.3 ± 0.2 µM
same,IC50,"rLen c 3 [5]; 150 mM sodium chloride, pH 2.5",4.3 ± 0.03 µM
same,Change of rLen c 3 affinity for the ligand at acidic pH,rLen c 3 [5]; pH 2.5 compared with pH 7.4,remained unchanged
same,Ability of rLen c 3 to bind the ligand after heating and cooling down,"rLen c 3 [5]; pH 7.4, heated from 20 to 90 °C, then cooled down to 20 °C",almost completely restored
same,Recovery of rLen c 3 structure after cooling down in the presence of ligand,rLen c 3 [6]; cooling down to 20 °C after 98.5 °C,complete recovery of the native conformation
same,Effect of ligand on rLen c 3 thermostability (resistance to thermal denaturation),rLen c 3 [6]; heating up to 98.5 °C,most pronounced effect
same,Effect of ligand on IgE binding capacity of rLen c 3,rLen c 3 [7],small increase
